Test results from patent publication US7193044B1, “Compounds and methods for regulating apoptosis, and methods of making and screening for compounds that regulate apoptosis” (Immunogen, Inc., priority 2000, dated 2007).
Positions count from the first letter of the chain named. Numbers in names are those of the source.

Experiments:
[1] = test system: BAD phosphorylation in COS-7 cells; assay: BAD phosphorylation in COS-7 cells (western blot band-shift); format: cell-based; details: anti-HA western blot
Text: Mouse FL5.12 cells were then transfected with the expression vector encoding the shorter murine BAD of SEQ ID NO:3 or one of the three BAD mutants. Total mRNA was isolated from the transfected FL5.12 cells, and reverse transcribed into cDNA. The cDNA was then subcloned into the expression vector pcDNA3 so that the amino acid sequence of the BAD or mutant BAD, encoded by the subcloned cDNA, was in-frame and operably linked to an N-terminal hemagglutinin (“HA”) epitope encoded by the expression vector. The expression vectors encoding the HA-tagged shorter murine BAD and mutant BAD were expressed in COS-7 cells. Whole cell lysates (“WCL”) were then prepared from the COS-7 cells expressing the polypeptides. The phosphorylation of the shorter murine BAD of SEQ ID NO:3 and mutant BAD were detected by a western blot of the WCL, probed with an anti-HA antibody (“anti-HA antibody”). […] Of note, each of the BAD mutants resolved as a doublet on a 16% SDS-PAGE, even though in the amino acid sequence of each of the BAD mutants one or both of the serines corresponding to Ser112 and Ser136 were mutated, i.e., substituted with alanine. […]

[2] = test system: BAD Ser155 phosphorylation in HeLa cells; assay: BAD phosphorylation in HeLa cells (western blot band-shift / anti-phospho-Ser155 antibody); format: cell-based, human; details: HeLa cells
Experimental: A mammalian expression vector encoding mutant HA-BAD S155A, derived from the shorter murine BAD of SEQ ID NO:3, was constructed. HA-BAD S155A has an amino acid sequence wherein the serine at a position corresponding to Ser155 is substituted with alanine. A western blot was performed on WCL prepared from cells expressing the shorter murine BAD (SEQ ID NO:3), HA-BAD S112A, HA-BAD S136A, or HA-BAD S155A, and probed with anti-HA antibody.
A western blot analysis, probed with anti-HA antibody, was performed on lysates produced from the Forskolin treated and untreated (control) cells to determine whether Forskolin could induce the phosphorylation BAD or mutant BAD.
HeLa cells transiently expressing HA-BAD, HA-BAD S155A, HA-BAD S112A/S136A, or HA-BAD S112A/S136A/S155A were treated with Forskolin or a buffer control.
The HA-BAD S112A/S136A double mutant was transiently expressed in HeLa cells, and transfected cell cultures were treated with each of the GPCR ligands, individually and as a group. A western blot analysis, probed with anti-HA antibody, was performed on lysates produced from the treated and untreated (negative control) cells. […] Forskolin (FK) and no treatment (−) were positive and negative controls, respectively (FIG. 6(a), […], respectively).
Non-transfected HeLa cells were treated with Forskolin or L-epinephrine, followed by western blot analysis of cell lysates using anti-BAD antibodies.
Transformants were treated with L-epinephrine, then lysed and subjected to anti-HA western blot analysis.
To further test whether phosphorylation of Ser155 is dependent on the PI 3-kinase/Akt pathway, HeLa cells were transfected with the mutant HA-BAD S155A and pretreated with Wortmannin, an inhibitor of PI 3-kinase. These cells were then stimulated with epidermal growth factor (EGF), lysed and analyzed by western blot analysis.
For immunoprecipitation of all HA-BAD species, 1 μg of the anti-HA antibody was added to the cell lysates, and incubated at 4° C. for one hour. Protein G agarose (Pierce) was then added (50 μl/fraction of 50% slurry) and followed by a one hour incubation at 4° C. Beads were washed with RIPA buffer, boiled in loading buffer (2% SDS, 10% glycerol, 5% β-ME, 60 mM Tris, pH 6.8, 0.002% Bromophenol Blue) and loaded onto polyacrylamide gels. After electrophoresis, proteins were transferred to nitrocellulose membranes, and blots blocked in western wash buffer (40 mM Tris, pH 8.0, 150 mM NaCl, 0.2% NP-40) with 5% BSA for one hour at room temperature. Blots were incubated with primary antibody diluted in western wash buffer with 3% BSA at room temperature for 1–2 hours, washed with western wash buffer and incubated with secondary HRP-coupled antibody diluted in western wash buffer with 1.5% BSA, and washed extensively. Polypeptides were detected with the ECL chemiluminescence according to the manufacturers instructions (Amersham).

HeLa cells [3] = assay: Beta-gal ELISA apoptosis assay in transfected HeLa cells; format: cell-based, human; details: HeLa cells, 24 hours post-transfection
Experimental: Because BAD Ser155 phosphorylation, like Ser136 phosphorylation, prevents BAD from binding to Bcl-XL (FIG. 1), it was possible that by analogy, Ser155 dephosphorylation promotes cell death. To test this idea, HeLa cells were co-transfected with BAD or various BAD serine mutants and a β-gal reporter plasmid. Twenty-four hours post-transfection, cell viability was analyzed by β-gal ELISA.
To test this idea, HeLa cells were again co-transfected with BAD or various BAD serine mutants and a β-gal reporter plasmid. Forskolin was then added to half of the cultures while the other half was left untreated. Beta-gal ELISAs were performed 24 hours post transfection. […] Thus, phosphorylation of Ser155 rescues cells from BAD-induced apoptosis, while substitution of Ser155 with a nonphosphorylatable residue results in increased cell death and the failure of cells to be protected from induced PKA activity.
Beta-gal ELISA assays were performed using the β-gal ELISA system from Boehringer Mannheim, according to manufacture's instructions. Cells were transfected with BAD (or BAD mutant) and β-gal in a ratio of 5:1. The transfected cells were trypsinized and distributed into 96-well tissue culture plates. Twenty-four hours after transfection, cell extracts were obtained by lysing the cells in lysis buffer. Cell extracts (200 μl) were then added to anti-β-gal-coated microtiter plates (MTP). The MTPs were foil-covered and incubated for one hour at 37° C. Solutions were then decanted and the MTPs were washed, followed by the addition of 200 μl of anti-β-gal-DIG working solution, and incubation for an additional hour as described above. Solutions were again decanted, the MTPs washed and 200 μl of DIG-POD working solution were added. The MTPs were incubated for another hour at 37° C., the solution decanted, and the wells washed. 200 μl of substrate with enhancer were added to each well and incubated at room temperature until color development. The β-gal activity was measured by the absorbance of the sample at […]. Data were based on triplicate wells with standard deviations calculated.

HeLa cells [4] = assay: Fluorescence-based beta-galactosidase assay of BAD-induced cell death in transfected HeLa cells; parameters: species or system human; details: compared to wild-type BAD
Experimental: FIG. 12(B) is a graphic representation of the results of a β-galactosidase assay. HeLa cells were co-transfected with the β-galactosidase gene and either HA-BAD (“WT”), HA-BAD S155A (“S155A”), HA-BAD S112A/S136A (“S112A/S136A”) or HA-BAD S112A/S136A/S155A (“AAA”). Transfected cells were then cultured in serum-free medium (SFM) or SFM supplemented with EGF (SFM+EGF) for 12 hours. Cell lysates were prepared and BAD-induced cell death was measured by the loss of β-galactosidase activity in a fluorescence-based assay. Fluorescence was measured at 465 nm. Results shown are the average and standard deviation of triplicate transfections (this experiment was repeated two more times with similar results). Expression levels of HA-tagged BAD and BAD mutants in transfected cell lysates were detected by anti-HA western blot analysis: HA-BAD (“WT”), HA-BAD S155A (“A”), HA-BAD S112A/S136A (“AA”), and HA-BAD S112A/S136A/S155A (“AAA”).
FIG. 12(C) is a graphic representation of the results of a β-galactosidase assay. HeLa cells were co-transfected with the β-galactosidase gene and either an empty vector (“CTL”), wild-type BAD (“WT”), the BAD S155A mutant (“S155A”) or the BAD S155D mutant (“S155D”). Cell lysates were prepared and BAD-induced cell death was measured by the loss of β-galactosidase activity in a fluorescence-based assay. Fluorescence was measured at 465 nm. Results shown are the average and standard deviation of triplicate transfections (this experiment was repeated two more times with similar results).
HeLa cells were co-transfected with the β-galactosidase gene and either wild-type BAD, BAD S155A, BAD S112A/S136A or BAD S112A/S136A/S155A. […] Cell lysates were prepared and BAD-induced cell death was measured by the loss of β-galactosidase activity in a fluorescence-based assay. […]
To measure β-gal activity, HeLa cells were plated in 12-well plates at 5×10^4 cells/well one day prior to transfection. […] Beta-gal activity was measured in extracts using a fluorogenic substrate (MUG, BIO-RAD FluorAce™ β-gal Reporter Assay, #170–3150). […]

B1: HA-BAD S112A/S134A/S136A: HA-tagged mutant of shorter murine BAD, serines corresponding to Ser112, Ser134 and Ser136 substituted with alanine (protein, UniProt Q61337 1-204, looked up, variant S112A S134A S136A)
Bcl2-associated agonist of …: MGTPKQPSLAPAHALGLRKSDPGIRSLGSDAGGRRWRPAAQSMFQIPEFEPSEQEDASATDRGLGPSLTEDQPGPYLAPGLLGSNIHQQGRAATNSHHGGAGAMETRSRHSAYPAGTEEDEGMEEELSPFRGRARAAPPNLWAAQRYGRELRRMSDEFEGSFKGLPRPKSAGTATQMRQSAGWTRIIQSWWDRNLGKGGSTPSQ
modifications: HA tag
notes: HA-tagged mutant of shorter murine BAD, serines corresponding to Ser112, Ser134 and Ser136 substituted with alanine
How did the “phosphorylation of expressed BAD mutant (lambda phosphatase-sensitive higher molecular weight band)” value [1] turn out when B1 was run?
Its value is “does not eliminate the phosphorylation of BAD”.

B2: BAD S136A: mutant of shorter murine BAD, serine corresponding to Ser136 substituted with alanine; HA- or GST-tagged (protein, UniProt Q61337 1-204, looked up, variant S136A)
Bcl2-associated agonist of …: B1 Bcl2-associated agonist of … with A112S, A134S
modifications: HA or GST tag
notes: mutant of shorter murine BAD, serine corresponding to Ser136 substituted with alanine; HA- or GST-tagged
Which “band-shift (phosphorylation) of expressed BAD construct in response to L-epinephrine” value [2] does the source give for B2 here?
The value was “significant band-shift”.

What about the “effect of expressed BAD mutant on cellular survival / cell death” value (HeLa cells [3]) of the same molecule?
Its value is “next greatest effect”.

B3: BAD S155D: BAD mutant, Ser155 replaced with aspartic acid to mimic the negatively charged phospho-Ser155 residue (protein, UniProt Q61337 1-204, looked up, variant S155D)
Bcl2-associated agonist of …: B1 Bcl2-associated agonist of … with A112S, A134S, A136S, S155D
How did the pro-apoptotic activity (HeLa cells [4]) turn out when B3 was run?
The pro-apoptotic activity was “no pro-apoptotic activity”.
